Assay results from patent US20040018205A1.
Read-outs that look alike come from different tables or passages of the source. Non-standard residues stand in square brackets, D forms with d. No end group written: not given here. Abu = CC[C@H](N)C(=O)O

Columns and labels:
[1] = target: soluble HLA-A2.01 molecules; assay: competition with 125I-F10V for HLA-A2.01, ratio peptide/125I-F10V 10/1
[2] = target: soluble HLA-A2.01 molecules; assay: competition with 125I-F10V for HLA-A2.01, ratio peptide/125I-F10V 25/1
[3] = target: HLA-A2.01 molecule at the surface of T2 cells; assay: T2 cells loaded overnight; residual surface complexes by indirect immunofluorescence and FACS at 0, 2, 4 and 5 h
[4] = target: HLA-A2.01 molecule at the surface of T2 cells; assay: T2 cell HLA-A2.01 stabilization; concentration ratio against the reference peptide for 20% of maximal stabilized molecules
[5] = target: HLA-A2.01 molecule at the surface of T2 cells

Binder | percentage inhibition of the binding of 125I-F10V, ratio 10/1 [1] | percentage inhibition of the binding of 125I-F10V, ratio 25/1 [2] | DC50 (half-life of the peptide-HLA-A2.1 complex) [3] | RA [4] | DC50 (half-life of the peptide-HLA-A2.1 complex) [5] | RA [5]
RIAECILGM (modifications not checked) [wildtype R9M peptide] | 64% | 69% | < 2 h | 2.9 | – | –
YIGRIAECI (modifications not checked) [Y9I] | – | – | < 2 h | – | – | –
RIAEAILGM (modifications not checked) [R9M-5A] | 59% | 72% | < 2 h | 3.2 | – | –
YIAE[Abu]ILGM [Y9M-5α-but] | 26% | 26% | – | 0.7 | – | –
RIAESILGM (modifications not checked) [R9M-5S] | 74% | 75% | – | – | 2 h | 2.2
YIAECILGM (modifications not checked) [Y9M] | – | – | < 2 h | – | – | –
AMPIGRIAE (modifications not checked) [A9E] | 47% | 57% | – | – | – | –
YIAEAILGM (modifications not checked) [Y9M-5A] | 79% | 87% | – | 0.9 | – | –
YIAESILGM (modifications not checked) [Y9M-5S] | 25% | 37% | – | 1.4 | – | –
YMPIGRIAE (modifications not checked) [Y9E] | – | – | 0 h | – | – | –
PIGRIAECI (modifications not checked) [P9I] | – | – | 0 h | – | – | –
RIAE[Abu]ILGM [R9M-5α-but] | 27% | 49% | 2 h | 2 | – | –
